In publication PMC11266248, “Production, purification, and quality assessment of borrelial proteins CspZ from Borrelia burgdorferi and FhbA from Borrelia hermsii” (Applied Microbiology and Biotechnology, 2024):

Biological target: T1, purified human complement factor H from human plasma/serum (human, UniProt P08603 19-1231)
T1 construct: human complement factor H, serum glycoprotein of 20 SCR domains (NCBI gene number 3075); also called FH; Human purified FH; source: bought: Sigma/Merck C5813 (batch SLCP3577), purified from human plasma; provided by Prof; Clark
T1 sequence (P08603 19-1231): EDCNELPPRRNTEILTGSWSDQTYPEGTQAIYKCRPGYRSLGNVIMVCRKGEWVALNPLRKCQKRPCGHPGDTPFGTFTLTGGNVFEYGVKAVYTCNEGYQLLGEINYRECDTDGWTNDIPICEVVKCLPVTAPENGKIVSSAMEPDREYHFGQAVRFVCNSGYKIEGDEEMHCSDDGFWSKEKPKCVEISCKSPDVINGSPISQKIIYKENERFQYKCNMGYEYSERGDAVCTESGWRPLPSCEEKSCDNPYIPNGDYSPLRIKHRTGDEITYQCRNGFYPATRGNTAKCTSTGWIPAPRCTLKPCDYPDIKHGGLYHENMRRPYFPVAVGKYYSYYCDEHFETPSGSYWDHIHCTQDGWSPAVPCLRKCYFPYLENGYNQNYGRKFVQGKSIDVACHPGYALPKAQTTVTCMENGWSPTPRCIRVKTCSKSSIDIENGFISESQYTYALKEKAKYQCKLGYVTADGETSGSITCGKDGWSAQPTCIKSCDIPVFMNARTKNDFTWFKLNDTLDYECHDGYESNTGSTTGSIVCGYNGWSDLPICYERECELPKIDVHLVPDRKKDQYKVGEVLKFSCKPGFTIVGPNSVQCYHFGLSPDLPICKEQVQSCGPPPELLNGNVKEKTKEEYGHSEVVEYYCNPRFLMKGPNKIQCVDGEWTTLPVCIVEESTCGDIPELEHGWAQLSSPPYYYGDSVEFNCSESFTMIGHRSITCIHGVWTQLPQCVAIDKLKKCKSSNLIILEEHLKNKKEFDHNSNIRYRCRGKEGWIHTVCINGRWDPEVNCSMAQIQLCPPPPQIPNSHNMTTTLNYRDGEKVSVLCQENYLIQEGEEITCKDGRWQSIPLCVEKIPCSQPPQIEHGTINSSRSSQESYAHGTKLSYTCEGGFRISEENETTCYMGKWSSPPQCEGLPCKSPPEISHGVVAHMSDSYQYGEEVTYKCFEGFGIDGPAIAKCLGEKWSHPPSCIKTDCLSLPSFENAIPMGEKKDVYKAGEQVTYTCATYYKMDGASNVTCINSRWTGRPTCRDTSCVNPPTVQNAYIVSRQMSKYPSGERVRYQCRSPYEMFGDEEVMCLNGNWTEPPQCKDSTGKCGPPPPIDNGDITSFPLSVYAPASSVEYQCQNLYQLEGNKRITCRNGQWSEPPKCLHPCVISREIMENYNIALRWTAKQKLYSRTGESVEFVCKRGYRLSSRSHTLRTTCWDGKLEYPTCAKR
Test: SPR; Biacore T100, CM5 chip; FH (750 RU), rFHL-1 or rFH15-20 (200 RU) amine-coupled as ligands; CspZ or FhbA as analytes; PBS with 0.05% Tween20, 25 °C, 30 µl/min; single-cycle and multiple-cycle kinetics, Langmuir 1:1 model; in duplicate
Details: both partners purified

B1: CspZ from Borrelia burgdorferi sensu stricto (complement regulator-acquiring surface protein 2) (natural protein)
chain: DVSRLNQRNINELKIFVEKAKYYSIKLDAIYNECTGAYNDIMTYSEGTFSDQSKVNQAISIFKKDNKIVNKFKELEKIIEEYKPMFLSKLIDDFAIELDQAVDNDVSNARHVADSYKKLRKSVVLAYIESFDVISSKFVDSKFVEASKKFVNKAKEFVEENDLIALECIVKTIGDMVNDREINSRSRYNNFYKKEADFLGAAVELEGAYKAIKQTLL
notes: CspZ (BbCRASP-2/BBH06), surface lipoprotein of Borrelia burgdorferi sensu stricto (NCBI txid139), encoded by cspZ on lp28-3; theoretical mass of the tagged protein 27.5 kDa, measured mass fits the predicted value without the N-terminal methionine; Two plasmids coding for N-terminally His6-tagged CspZ are named (pET-45(+) from Prof. Marconi, pETM-11 from Dr. Brangulis); also called BbCRASP-2; …
Binder B1 has a Kd of 209 ± 141 pM, a koff of 5.31e-05 s⁻¹ and a kon of 255000 M⁻¹ s⁻¹.
